# Reference: article PMC3916413
# Target: T1, endogenous Asc of mouse macrophages (mouse (endogenous in BMDM)), Q9EPB4
# T1 chain: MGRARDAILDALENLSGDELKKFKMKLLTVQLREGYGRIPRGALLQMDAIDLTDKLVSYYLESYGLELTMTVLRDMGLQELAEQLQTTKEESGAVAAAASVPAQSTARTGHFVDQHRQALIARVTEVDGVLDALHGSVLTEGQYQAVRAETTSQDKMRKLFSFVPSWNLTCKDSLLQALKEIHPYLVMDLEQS
# Assay: cross-linking; insoluble fraction (pellet) of BMDM lysates cross-linked with 2 mM disuccinimidyl suberate for 30 min, immunoblot with anti-Asc; cells infected with WT Shigella or Salmonella, T3SS-deficient or fliA mutants, nucleofected with MxiI, or with siRNA to Naip2 or Naip5
# Details: remark: other sources report otherwise
binder,measurement,value
"endogenous Asc of mouse macrophages, Q9EPB4 1-193 (natural protein) MGRARDAILDALENLSGDELKKFKMKLLTVQLREGYGRIPRGALLQMDAIDLTDKLVSYYLESYGLELTMTVLRDMGLQELAEQLQTTKEESGAVAAAASVPAQSTARTGHFVDQHRQALIARVTEVDGVLDALHGSVLTEGQYQAVRAETTSQDKMRKLFSFVPSWNLTCKDSLLQALKEIHPYLVMDLEQS",stoichiometry N,2
